In patent US20180155451A1 (published 2018):

T1: FcγRIIb extracellular domain with C-terminal His tag (human, UniProt P31994 43-217)
T1 construct: extracellular domain; Soluble receptor expressed in FreeStyle293 cells and used as analyte in Biacore; also called FcgRIIb; 2b; not shown: His tag at the C terminus
T1 sequence (looked up): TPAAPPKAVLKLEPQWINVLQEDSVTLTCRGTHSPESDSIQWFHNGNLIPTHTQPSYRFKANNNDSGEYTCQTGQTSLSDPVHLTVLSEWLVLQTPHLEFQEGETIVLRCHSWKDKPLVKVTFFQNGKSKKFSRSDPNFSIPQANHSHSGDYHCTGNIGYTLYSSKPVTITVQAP

B1: heterodimerized antibody GpH7-A5/GpH7-B3 variant K334_09D/GpL16-k0 (antibody, human IgG1, kappa)
heavy 1: not shown
heavy 2: not shown
light: DIVMTQSPLSLPVTPGEPASISCQASESLVHSNRNTYLHWYLQKPGQSPQLLIYKVSNRFSGVPDRFSGSGSGTDFTLKISRVEAEDVGVYYCSQNTHVPPTFGQGTKVEIERTVAAPSVFIFPPSDEQLKSGTASVVCLLNNFYPREAKVQWKVDNALQSGNSQESVTEQDSKDSTYSLSSTLTLSKADYEKHKVYACEVTHQGLSSPVTKSFNRGEC
notes: Substitution in only one H chain (GpH7-B3 side); also called He Ab
B2: heterodimerized antibody GpH7-A5/GpH7-B3 variant T335_11K/GpL16-k0 (antibody, human IgG1, kappa)
heavy 1: not shown
heavy 2: not shown
light: B1 light
notes: as for B1
B3: heterodimerized antibody GpH7-A5/GpH7-B3 variant I336_02A/GpL16-k0 (antibody, human IgG1, kappa)
heavy 1: not shown
heavy 2: not shown
light: B1 light
notes: as for B1
B4: heterodimerized antibody GpH7-A5/GpH7-B3 variant E333_13S/GpL16-k0 (antibody, human IgG1, kappa)
heavy 1: not shown
heavy 2: not shown
light: B1 light
notes: as for B1
B5: heterodimerized antibody GpH7-A5/GpH7-B3 variant T335_05P/GpL16-k0 (antibody, human IgG1, kappa)
heavy 1: not shown
heavy 2: not shown
light: B1 light
notes: as for B1
B6: heterodimerized antibody GpH7-A5/GpH7-B3 variant E333_11K/GpL16-k0 (antibody, human IgG1, kappa)
heavy 1: not shown
heavy 2: not shown
light: B1 light
notes: as for B1
B7: heterodimerized antibody GpH7-A5/GpH7-B3 variant T335_06M/GpL16-k0 (antibody, human IgG1, kappa)
heavy 1: not shown
heavy 2: not shown
light: B1 light
notes: as for B1
B8: heterodimerized antibody GpH7-A5/GpH7-B3 variant E333_12R/GpL16-k0 (antibody, human IgG1, kappa)
heavy 1: not shown
heavy 2: not shown
light: B1 light
notes: as for B1
B9: heterodimerized antibody GpH7-A5/GpH7-B3 variant E333_09D/GpL16-k0 (antibody, human IgG1, kappa)
heavy 1: not shown
heavy 2: not shown
light: B1 light
notes: as for B1
B10: heterodimerized antibody GpH7-A5/GpH7-B3 variant E333_08L/GpL16-k0 (antibody, human IgG1, kappa)
heavy 1: not shown
heavy 2: not shown
light: B1 light
notes: as for B1
B11: heterodimerized antibody GpH7-A5/GpH7-B3 variant T335_12R/GpL16-k0 (antibody, human IgG1, kappa)
heavy 1: not shown
heavy 2: not shown
light: B1 light
notes: as for B1
B12: heterodimerized antibody GpH7-A5/GpH7-B3 variant T335_01G/GpL16-k0 (antibody, human IgG1, kappa)
heavy 1: not shown
heavy 2: not shown
light: B1 light
notes: as for B1
B13: heterodimerized antibody GpH7-A5/GpH7-B3 variant I336_03V/GpL16-k0 (antibody, human IgG1, kappa)
heavy 1: not shown
heavy 2: not shown
light: B1 light
notes: as for B1
B14: heterodimerized antibody GpH7-A5/GpH7-B3 variant E333_15Y/GpL16-k0 (antibody, human IgG1, kappa)
heavy 1: not shown
heavy 2: not shown
light: B1 light
notes: as for B1
B15: heterodimerized antibody GpH7-A5/GpH7-B3 variant K334_01G/GpL16-k0 (antibody, human IgG1, kappa)
heavy 1: not shown
heavy 2: not shown
light: B1 light
notes: as for B1
B16: heterodimerized antibody GpH7-A5/GpH7-B3 variant T335_02A/GpL16-k0 (antibody, human IgG1, kappa)
heavy 1: not shown
heavy 2: not shown
light: B1 light
notes: as for B1
B17: heterodimerized antibody GpH7-A5/GpH7-B3 variant E333_14T/GpL16-k0 (antibody, human IgG1, kappa)
heavy 1: not shown
heavy 2: not shown
light: B1 light
notes: as for B1
B18: heterodimerized antibody GpH7-A5/GpH7-B3 variant E333_16H/GpL16-k0 (antibody, human IgG1, kappa)
heavy 1: not shown
heavy 2: not shown
light: B1 light
notes: as for B1

Each binder was assayed against T2, FcγRIa extracellular domain with C-terminal His tag (human, UniProt P12314 16-292) (assay: SPR Biacore, relative binding amount).
T2 construct: extracellular domain; Soluble receptor expressed in FreeStyle293 cells and used as analyte in Biacore; also called FcgRI; 1a; not shown: His tag at the C terminus
T2 sequence (P12314 16-292): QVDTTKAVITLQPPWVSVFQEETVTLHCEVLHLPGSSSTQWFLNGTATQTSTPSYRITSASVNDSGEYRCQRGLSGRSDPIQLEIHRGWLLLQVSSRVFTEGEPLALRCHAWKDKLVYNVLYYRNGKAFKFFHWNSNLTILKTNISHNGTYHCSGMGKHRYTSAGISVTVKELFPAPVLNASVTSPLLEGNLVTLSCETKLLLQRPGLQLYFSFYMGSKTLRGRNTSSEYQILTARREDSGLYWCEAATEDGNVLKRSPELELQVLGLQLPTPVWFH

| He/Con_1a | Binder |
| --- | --- |
| 106 % of GpH7-A5/GpH7-B3/GpL16-k0 (=100) | B1 |
| 111 % of GpH7-A5/GpH7-B3/GpL16-k0 (=100) | B2 |
| 106 % of GpH7-A5/GpH7-B3/GpL16-k0 (=100) | B3 |
| 103 % of GpH7-A5/GpH7-B3/GpL16-k0 (=100) | B4 |
| 106 % of GpH7-A5/GpH7-B3/GpL16-k0 (=100) | B5 |
| 102 % of GpH7-A5/GpH7-B3/GpL16-k0 (=100) | B6 |
| 107 % of GpH7-A5/GpH7-B3/GpL16-k0 (=100) | B7 |
| 102 % of GpH7-A5/GpH7-B3/GpL16-k0 (=100) | B8 |
| 104 % of GpH7-A5/GpH7-B3/GpL16-k0 (=100) | B9 |
| 102 % of GpH7-A5/GpH7-B3/GpL16-k0 (=100) | B10 |
| 113 % of GpH7-A5/GpH7-B3/GpL16-k0 (=100) | B11 |
| 104 % of GpH7-A5/GpH7-B3/GpL16-k0 (=100) | B12 |
| 105 % of GpH7-A5/GpH7-B3/GpL16-k0 (=100) | B13 |
| 101 % of GpH7-A5/GpH7-B3/GpL16-k0 (=100) | B14 |
| 104 % of GpH7-A5/GpH7-B3/GpL16-k0 (=100) | B15 |
| 103 % of GpH7-A5/GpH7-B3/GpL16-k0 (=100) | B16 |
| 102 % of GpH7-A5/GpH7-B3/GpL16-k0 (=100) | B17 |
| 101 % of GpH7-A5/GpH7-B3/GpL16-k0 (=100) | B18 |

These binders were tested against T1, FcγRIIb extracellular domain with … (assay: SPR Biacore, relative binding amount).

| He/Con_2b | Binder |
| --- | --- |
| 94.8 % of GpH7-A5/GpH7-B3/GpL16-k0 (=100) | B1 |
| 91 % of GpH7-A5/GpH7-B3/GpL16-k0 (=100) | B2 |
| 84.9 % of GpH7-A5/GpH7-B3/GpL16-k0 (=100) | B3 |
| 81.8 % of GpH7-A5/GpH7-B3/GpL16-k0 (=100) | B4 |
| 99.9 % of GpH7-A5/GpH7-B3/GpL16-k0 (=100) | B5 |
| 80.6 % of GpH7-A5/GpH7-B3/GpL16-k0 (=100) | B6 |
| 99.4 % of GpH7-A5/GpH7-B3/GpL16-k0 (=100) | B7 |
| 80.4 % of GpH7-A5/GpH7-B3/GpL16-k0 (=100) | B8 |
| 94.3 % of GpH7-A5/GpH7-B3/GpL16-k0 (=100) | B9 |
| 95 % of GpH7-A5/GpH7-B3/GpL16-k0 (=100) | B10 |
| 91.9 % of GpH7-A5/GpH7-B3/GpL16-k0 (=100) | B11 |
| 96.7 % of GpH7-A5/GpH7-B3/GpL16-k0 (=100) | B12 |
| 90.3 % of GpH7-A5/GpH7-B3/GpL16-k0 (=100) | B13 |
| 94.4 % of GpH7-A5/GpH7-B3/GpL16-k0 (=100) | B14 |
| 92.5 % of GpH7-A5/GpH7-B3/GpL16-k0 (=100) | B15 |
| 94 % of GpH7-A5/GpH7-B3/GpL16-k0 (=100) | B16 |
| 86.1 % of GpH7-A5/GpH7-B3/GpL16-k0 (=100) | B17 |
| 83.3 % of GpH7-A5/GpH7-B3/GpL16-k0 (=100) | B18 |
